{
  "source": "paper PMC4876929",
  "about": "(Nature, 2015)",
  "proteins": {"B1": {"name": "Fluc channel from Bordetella pertussis (Bpe), R29K/E94C, Hg-labelled (natural protein)", "chain": "MLTYAPLNFIAIGIGATLGAWLRWVLGLKLNGAGWPWGTLTANLVGGYLIGVMVALIASHPEWPAWIRLAAVTGFLGGLTTFSTFSAETVDMLCRGVYATAAAYAGASLAGSLAMTGLGLATVRLLLR", "modifications": "Hg at the unique cysteine (E94C), labelled with Hg(II) acetate"}, "B2": {"name": "Fluc channel from Bordetella pertussis (Bpe), R29K/E94S (natural protein, UniProt Q7VYU0 1-128, looked up)", "chain": "B1 chain with C94S"}},
  "key": {"crystal structure [1]": {"biological_target": "the molecule itself", "assay": "crystal structure"}, "crystal structure [2]": {"biological_target": "the molecule itself", "assay": "crystal structure", "remark": "listed apart in the source"}},
  "note": "Residue numbers refer to the chain shown, from its start. Numbers in names are those of the source. Like-named read-outs stand apart in the source and are kept apart here.",
  "data": [
    {"protein": "B1", "values": [
      {"measurement": "stoichiometry N", "setting": "crystal structure [1]", "result": 2}
    ]},
    {"protein": "B2", "values": [
      {"measurement": "stoichiometry N", "setting": "crystal structure [2]", "result": 2}
    ]}
  ]
}
